From patent US20140179896A1 (published 2014)

Experiments:
[1] = target: T1, human vascular endothelial growth factor receptor-2 Fc chimera (KDR-Fc) (human, UniProt P35968 20-764); experiment: radioactive equilibrium binding assay, KDR-Fc
T1 construct: range 1-764; purchased from R&D Systems; also called hKDR; human VEGF-R2-Fc; not shown: human IgG1 Fc
Experimental: (§1) To prepare ³⁵S-labeled binding proteins for analysis, mRNA was prepared as described above for RNA-protein fusion production but the linker ligation step was omitted. The mRNA was expressed using rabbit reticulocyte lysate translation kit (Ambion) in the presence of ³⁵S-labeled Met at 30° C. for 1 hour. Expressed protein was purified on M2-agarose Flag beads (Sigma) as described above. This procedure produced the encoded protein without the nucleic acid tail. In a direct binding assay, VEGF-R2-Fc fusions in concentrations ranging from 0 to 200 nM were added to a constant concentration of the purified protein (0.2 or 0.5 nM) and incubated at 30° C. for 1 hour in buffer B. The receptor-binder complexes were captured using Protein A magnetic beads for another 10 minutes at room temperature using a Kingfisher™ The beads were washed with six reaction volumes of buffer B. The protein was eluted from the beads with 100 μL of 0.1 M KOH. […] of the reaction mixture and elution were dried onto a LumaPlate-96 (Packard) and the amount of ³⁵S on the plate was measured using a TopCount NXT instrument (Packard). The amount of fibronectin-based scaffold protein bound to the target was estimated as a percent of radioactivity eluted from Protein A magnetic beads compare to radioactivity in the reaction mixture. Nonspecific binding of fibronectin-based scaffold proteins to the beads was determined by measuring binding in the absence of KDR-Fc and represented less than 1-2% of the input. Specific binding was obtained through subtraction of nonspecific binding from total binding. Data was analyzed using the GraphPad Prizm software (GraphPad Software, Inc, San Diego, Calif.), fitted using a one site, non-linear binding equation.

[2] = target: T1, human vascular endothelial growth …; experiment: radioactive equilibrium binding assay
[3] = target: T2, mouse vascular endothelial growth factor receptor-2 Fc chimera (Flk-1-Fc) (mouse, UniProt P35918 20-762); experiment: radioactive equilibrium binding assay
T2 construct: purchased from R&D Systems; also called mouse VEGF-R2-Fc; not shown: Fc part of the purchased chimera
T2 sequence (P35918 20-762, stated change not applied): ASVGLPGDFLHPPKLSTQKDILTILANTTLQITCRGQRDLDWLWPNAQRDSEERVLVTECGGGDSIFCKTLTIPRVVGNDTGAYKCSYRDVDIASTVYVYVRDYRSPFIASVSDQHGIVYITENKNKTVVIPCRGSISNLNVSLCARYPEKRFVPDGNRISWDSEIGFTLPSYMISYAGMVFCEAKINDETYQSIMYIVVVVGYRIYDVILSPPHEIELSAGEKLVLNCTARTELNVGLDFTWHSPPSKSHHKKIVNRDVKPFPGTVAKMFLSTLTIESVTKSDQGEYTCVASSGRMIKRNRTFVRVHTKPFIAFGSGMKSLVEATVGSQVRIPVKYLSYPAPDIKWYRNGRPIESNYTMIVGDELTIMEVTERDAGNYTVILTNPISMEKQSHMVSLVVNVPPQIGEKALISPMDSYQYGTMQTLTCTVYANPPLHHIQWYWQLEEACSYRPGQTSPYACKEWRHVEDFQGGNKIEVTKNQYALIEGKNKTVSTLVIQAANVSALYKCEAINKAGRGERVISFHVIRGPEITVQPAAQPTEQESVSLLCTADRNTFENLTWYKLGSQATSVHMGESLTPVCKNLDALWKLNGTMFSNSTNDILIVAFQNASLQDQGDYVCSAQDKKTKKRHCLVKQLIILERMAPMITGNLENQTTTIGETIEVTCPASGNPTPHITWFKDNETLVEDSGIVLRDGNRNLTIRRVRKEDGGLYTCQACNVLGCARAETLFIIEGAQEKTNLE

[4] = target: T1, human vascular endothelial growth …; experiment: radioactive equilibrium binding, 1 nM KDR-Fc
Summary of the method: (§2)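 Percent of input bound is specific binding: total ³⁵S eluted from Protein A beads minus nonspecific bead binding without receptor. The binder (0.2 or 0.5 nM) was incubated with titrated VEGF-R2-Fc in buffer B, 30° C, 1 h.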

[5] = target: T1, human vascular endothelial growth …; experiment: radioactive equilibrium binding
Experimental: as §1, with “In a direct binding assay, VEGF-R2-Fc fusions in concentrations ranging from 0 to 200 nM were added to a constant concentration of the purified protein (0.2 or 0.5 nM) and incubated at 30° C. for 1 hour in buffer B. The receptor-binder complexes were captured using Protein A magnetic beads for another 10 minutes at room temperature using a Kingfisher™ The beads were washed with six reaction volumes of buffer B. The protein was eluted from the beads with 100 μL of 0.1 M KOH.” left out, “Specific binding was obtained through subtraction of nonspecific binding from total binding.” left out

[6] = target: T1, human vascular endothelial growth …; experiment: BIAcore, target-Fc immobilized
Experimental: (§3) The binding kinetics of fibronectin-based scaffold proteins binding proteins to the target was measured using BIAcore 2000 biosensor (Pharmacia Biosensor). Human and mouse VEGF-R2-Fc fusions were immobilized onto a CM5 sensor chip and soluble binding proteins were injected at concentrations ranging from 0 to 100 nM in buffer 0 (10 mM HEPES, 150 mM NaCl, 0.005% Tween 20, pH 7.4). Sensorgrams were obtained at each concentration and were evaluated using a program, BIA Evaluation 2.0 (BIAcore), to determine the rate constants kₐ (kₒₙ) and kd (koff.) The affinity constant, KD was calculated from the ratio of rate constants […].

[7] = target: T3, mouse vascular endothelial growth factor receptor-2 Fc chimera (Flk-1-Fc) (mouse, UniProt P35918 20-762); experiment: Kd for Flk-1 against clone 159Q(8)L
T3 construct: Purchased from R&D Systems; also called mouse VEGF-R2; not shown: Fc part of the purchased chimera
T3 sequence (P35918 20-762, stated change not applied): as above

[8] = target: full-length human KDR on cells (human, UniProt P35968 20-1356); experiment: cell-based or functional assay
[9] = target: mouse vascular endothelial growth factor receptor-2 Fc chimera (Flk-1-Fc) (mouse) (UniProt P35918); experiment: assay not given
mouse vascular endothelial growth factor receptor-2 Fc chimera (Flk-1-Fc) (mouse), sequence (P35918 20-762, change not shown): as the sequence (P35918 20-762, stated change not applied) above

[10] = target: T4, human vascular endothelial growth factor receptor-2 Fc chimera (KDR-Fc) (human, UniProt P35968 20-764); experiment: binding to 1 nM KDR-Fc, % of input; radioactive equilibrium binding (assay not given)
T4 construct: range 1-764; also called human VEGFR-2; hKDR; not shown: human IgG1 Fc
Summary of the method: as §2

[11] = target: T3, mouse vascular endothelial growth …; experiment: radioactive equilibrium binding assay with VEGFR-2-Fc chimeras (FIG. 4)
Experimental: as §1, with “In a direct binding assay, VEGF-R2-Fc fusions in concentrations ranging from 0 to 200 nM were added to a constant concentration of the purified protein (0.2 or 0.5 nM) and incubated at 30° C. for 1 hour in buffer B. The receptor-binder complexes were captured using Protein A magnetic beads for another 10 minutes at room temperature using a Kingfisher™ The beads were washed with six reaction volumes of buffer B. The protein was eluted from the beads with 100 μL of 0.1 M KOH.” left out, “Specific binding was obtained through subtraction of nonspecific binding from total binding.” left out

[12] = target: T4, human vascular endothelial growth …; experiment: radioactive equilibrium binding (assay not given)
[13] = target: T3, mouse vascular endothelial growth …; experiment: KD against mouse Flk-1 by the BIAcore binding assay; value not given
Experimental: Following the methodologies described in the preceding Examples, additional ¹⁰Fn3-based KDR binding proteins were generated. As described for the development of the M5FL protein in Example 5, above, proteins were tested for KD against human KDR and mouse Flk-1 using the BIAcore binding assay and for IC50 in a Ba/F3 assay.
as §3

[14] = target: T5, murine VEGFR-2/EpoR chimera (flk-1/EpoR fusion, pmKE2) on cells (mouse; human, UniProt P35918 20-762; P19235 251-508); experiment: flow cytometry on CHO Flk-1 cells
T5 construct: range 1-762;range 251-508; also called CHO Flk-1; CHO-Flk
T5 sequence (P35918 other isoform, or with tags, fused parts or gaps mutant limits assumed, form in doubt): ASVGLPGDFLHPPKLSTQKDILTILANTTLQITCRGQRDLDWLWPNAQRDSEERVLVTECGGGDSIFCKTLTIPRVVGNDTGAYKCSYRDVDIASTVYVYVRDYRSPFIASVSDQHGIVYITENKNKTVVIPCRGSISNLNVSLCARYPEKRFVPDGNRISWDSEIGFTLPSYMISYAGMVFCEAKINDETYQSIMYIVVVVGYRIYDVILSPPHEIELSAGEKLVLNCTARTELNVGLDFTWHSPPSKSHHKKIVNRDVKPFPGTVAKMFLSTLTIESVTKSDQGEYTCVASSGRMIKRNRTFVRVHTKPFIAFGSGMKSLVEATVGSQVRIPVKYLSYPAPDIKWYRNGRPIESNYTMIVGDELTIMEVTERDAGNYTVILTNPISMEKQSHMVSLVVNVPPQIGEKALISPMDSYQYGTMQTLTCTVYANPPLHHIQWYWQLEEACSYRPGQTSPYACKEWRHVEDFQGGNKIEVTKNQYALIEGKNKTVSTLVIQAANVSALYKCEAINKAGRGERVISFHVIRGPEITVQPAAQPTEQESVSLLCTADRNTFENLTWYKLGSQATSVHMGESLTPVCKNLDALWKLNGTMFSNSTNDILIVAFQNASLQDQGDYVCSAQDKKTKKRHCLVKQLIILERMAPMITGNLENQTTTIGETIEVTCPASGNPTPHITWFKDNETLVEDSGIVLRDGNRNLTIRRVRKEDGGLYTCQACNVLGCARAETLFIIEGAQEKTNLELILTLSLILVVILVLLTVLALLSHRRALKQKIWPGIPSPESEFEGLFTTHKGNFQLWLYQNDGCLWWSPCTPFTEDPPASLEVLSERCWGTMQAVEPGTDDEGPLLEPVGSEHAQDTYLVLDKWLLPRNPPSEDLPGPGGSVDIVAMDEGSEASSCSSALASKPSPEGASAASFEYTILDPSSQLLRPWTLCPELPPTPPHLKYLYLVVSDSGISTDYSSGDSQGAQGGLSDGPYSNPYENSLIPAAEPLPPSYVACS
Experimental: (§4) The functionality of KDR and Flk-1 binding molecules in a cell culture model system was evaluated with E. coli produced binding molecules.
(§5) Binding of fibronectin-based scaffold protein to cell-surface KDR and Flk-1 was analyzed simultaneously on VEGF-R2-expressing and control cells by flow cytometry. CHO-pcDNA3 cells (control) were released from their dishes with trypsin-EDTA, washed in Dulbecco's PBS without calcium and magnesium (D-PBS⁻; Invitrogen), and stained for 30 minutes at 37° C. with 1.5 μM CMTMR (5-(and -6)-(((4-chloromethyl)benzoyl)amino)-tetramethylrhodamine) (Molecular Probes). The cells were washed in D-PBS⁻ and incubated for a further 30 minutes at 37° C., and then resuspended in blocking buffer (D-PBS⁻/10% fetal bovine serum) on ice. CHO-KDR or CHO-Flk cells were treated identically except that CMTMR was omitted. 75,000 of CMTMR-stained CHO-pcDNA3 cells were mixed with an equal number of unstained CHO-KDR or CHO-Flk cells in each well of a V-bottom 96-well plate. All antibodies and fibronectin-based scaffold proteins were diluted in 25 μl/well of blocking buffer, and each treatment was conducted for 1 hour at 4° C. Cell mixtures were stained with His₆-tagged (SEQ ID NO: 235) fibronectin-based scaffold proteins, washed twice with cold D-PBS⁻, and then treated with 2.5 μg/ml anti-His₆ (SEQ ID NO: 235) MAb (R&D Systems), washed, and stained with 4 μg/ml Alexa Fluor 488-conjugated anti-mouse antibody (Molecular Probes). For cells treated with an anti-KDR mouse monoclonal antibody (Accurate Chemical, Westbury, N.Y.) or an anti-flk-1 goat polyclonal antibody (R&D Systems), the anti-His₆ (SEQ ID NO: 235) step was omitted, and antibody binding was detected with the species-appropriate Alexa Fluor 488 conjugated secondary antibody (Molecular Probes). Following staining, cells were resuspended in 200 μl/well D-PBS⁻/1% FBS/1 μg/ml 7-aminoactinomycin D (7-AAD; Molecular Probes) and analyzed by flow cytometry on a FACSCalibur (Becton Dickinson, San Jose, Calif.) equipped with a […].

[15] = target: T6, full-length human KDR on cells (human, UniProt P35968 20-1356); experiment: cell-based or functional assay; remark: listed apart in the source
[16] = target: T5, murine VEGFR-2/EpoR chimera (flk-1/EpoR …); experiment: cell-based or functional assay
[17] = target: human KDR/EpoR fusion (phKE8) on Ba/F3 cells (human, UniProt P35968 20-764; P19235 251-508, limits assumed); experiment: cell-based or functional assay
[18] = target: T2, mouse vascular endothelial growth …; experiment: BIAcore, target-Fc immobilized
Experimental: as §3

[19] = target: T6, full-length human KDR on cells; experiment: flow cytometry on CHO KDR cells
Experimental: as §4, §5

B1: VR28 (designed binder)
chain: VSDVPRDLEVVAATPTSLLISWRHPHFPTRYYRITYGETGGNSPVQEFTVPLQPPTATISGLKPGVDYTITGYAVTVAQNDHELITPISINYRT
notes: scaffold said to be unchanged from wild type 10Fn3; Flag-tagged in vitro translated protein in the radioactive assay, His6-tagged E. coli protein in BIAcore; tags left out; also called VR28 (I69T)
[1]
  Kd: 11 nM
[2]
  Kd: 11 nM
[3]
  binding result: no binding (tested: 100 nM)
[4]
  Binding to 1 nM KDR, %: 3%
[5]
  Kd: 11 nM
[6]
  Kd: 13 nM
  koff: 0.00034 s⁻¹
  kon: 30000 M⁻¹ s⁻¹

B2: M5FL (designed binder)
chain: VSDVPRDLEVVAATPTSLLISWRHPHFPTRYYRITYGETGGNSPVQEFTVPLQPPLATISGLKPGVDYTITGYAVTKERNGRELFTPISINYRT
notes: 10Fn3 clone with WT N-terminus; Tail and tag not included here; also called clone M5FL
[7]
  fold improvement over the original clone (159Q(8)L): 1000 fold
[8]
  HUVEC proliferation assay: decrease in proliferation: ~40%

B3: 159(Q8L) (designed binder)
chain: VSDVPRDLEVVAATPTSLLISWRHPHFPTRYYRITYGETGGNSPVQEFTVPLQPPAATISGLKPGVDYTITGYAVTMAQSGHELFTPISINYRT
notes: clone 159 with Q8 corrected to the wild type L; His6-tagged E. coli protein in BIAcore, tag left out; also called Clone 159 (Q8L)
[9]
  Kd: > 3000 nM
[6]
  Kd: 2 nM
  koff: 0.0001 s⁻¹
  kon: 50000 M⁻¹ s⁻¹

B4: VR28 (designed binder)
chain: VSDVPRDLEVVAATPTSLLISWRHPHFPTRYYRITYGETGGNSPVQEFTVPLQPPTATISGLKPGVDYTITGYAVTVAQNDHELITPISINYRT
notes: 10Fn3 clone with WT N-terminus; tag not included; also called VR28 (I69T); VR28 clone
[10]
  Binding to 1 nM KDR, %: 3%
[11]
  binding result: no binding
[12]
  Kd: 11 nM

B5: CT-01 (designed binder)
chain: EVVAATPTSLLISWRHPHFPTRYYRITYGETGGNSPVQEFTVPLQPPTATISGLKPGVDYTITVYAVTDGRNGRLLSIPISINYRT
notes: Core form of CT-01
[13]
  binding result: binds

B6: E19 (designed binder)
chain: EVVAATPTSLLISWRHPHFPTRYYRITYGETGGNSPVQEFTVPLQPPTATISGLKPGVDYTITGYAVTVERNGRHLMTPISINYRT
notes: Del 1-8 10Fn3 clone; Flag-tagged in vitro translated protein in the radioactive assay, His6-tagged E. coli protein in BIAcore and cell assays; tags left out
[2]
  Kd: < 1.3 nM
[3]
  Kd: < 0.7 nM
[14]
  EC50: 5.3 nM
[15]
  Inhibition of VEGF-induced proliferation of HUVEC cells (IC50, nM): 11.8 nM
[16]
  Inhibition of VEGF-induced proliferation, Ba/F3-Flk (IC50, nM): 5.8 nM
[17]
  Inhibition of VEGF-induced proliferation, Ba/F3-KDR (IC50, nM): 12.3 nM
[6]
  Kd: 0.06 nM
  koff: 1.7e-05 s⁻¹
  kon: 300000 M⁻¹ s⁻¹
[18]
  Kd: 0.34 nM
  koff: 0.000223 s⁻¹
  kon: 660000 M⁻¹ s⁻¹
[19]
  EC50: 7.6 nM

B7: E18 (designed binder)
chain: EVVAATPTSLLISWRHPHFPTRYYRITYGETGGNSPVQEFTVPLQPPTATISGLKPGVDYTITGYAVTVERNGRELNTPISINYRT
notes: as for B6
[2]
  Kd: < 1.2 nM
[3]
  Kd: < 0.5 nM
[14]
  EC50: 0.9 nM
[15]
  Inhibition of VEGF-induced proliferation of HUVEC cells (IC50, nM): 12.8 nM
[16]
  Inhibition of VEGF-induced proliferation, Ba/F3-Flk (IC50, nM): 2.4 nM
[17]
  Inhibition of VEGF-induced proliferation, Ba/F3-KDR (IC50, nM): 5.4 nM
[6]
  Kd: 0.46 nM
  koff: 0.000121 s⁻¹
  kon: 260000 M⁻¹ s⁻¹
[18]
  Kd: 0.33 nM
  koff: 0.000195 s⁻¹
  kon: 600000 M⁻¹ s⁻¹
[19]
  EC50: 4.2 nM

B8: E29 (designed binder)
chain: EVVAATPTSLLISWRHPHFPTRYYRITYGETGGNSPVQEFTVPLQPPTATISGLKPGVDYTITGYAVTVERNGRVLMTPISINYRT
notes: as for B6
[2]
  Kd: < 1.5 nM
[3]
  Kd: < 0.9 nM
[14]
  EC50: 0.6 nM
[15]
  Inhibition of VEGF-induced proliferation of HUVEC cells (IC50, nM): 8.4 nM
[16]
  Inhibition of VEGF-induced proliferation, Ba/F3-Flk (IC50, nM): 4.7 nM
[17]
  Inhibition of VEGF-induced proliferation, Ba/F3-KDR (IC50, nM): 10 nM
[6]
  Kd: 0.19 nM
  koff: 7e-05 s⁻¹
  kon: 360000 M⁻¹ s⁻¹
[18]
  Kd: 0.37 nM
  koff: 0.000288 s⁻¹
  kon: 790000 M⁻¹ s⁻¹
[19]
  EC50: 2.3 nM
